Like-named read-outs stand apart in the source and are kept apart here.
T1: CCR4 (human, UniProt P51679 1-360)
T1 construct: whole, on cells
T1 sequence (looked up): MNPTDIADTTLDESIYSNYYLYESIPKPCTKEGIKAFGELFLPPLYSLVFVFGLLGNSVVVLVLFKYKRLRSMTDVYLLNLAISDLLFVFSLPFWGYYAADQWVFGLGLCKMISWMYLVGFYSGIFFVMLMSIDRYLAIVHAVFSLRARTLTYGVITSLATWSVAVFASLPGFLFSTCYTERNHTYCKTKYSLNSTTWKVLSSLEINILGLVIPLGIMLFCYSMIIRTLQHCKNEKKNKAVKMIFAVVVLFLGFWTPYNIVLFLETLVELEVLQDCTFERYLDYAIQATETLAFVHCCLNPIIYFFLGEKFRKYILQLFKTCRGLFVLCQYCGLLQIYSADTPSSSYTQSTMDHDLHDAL

T2: human CXCR3 (human, UniProt P49682 1-368)
T2 construct: whole, on cells
T2 sequence (looked up): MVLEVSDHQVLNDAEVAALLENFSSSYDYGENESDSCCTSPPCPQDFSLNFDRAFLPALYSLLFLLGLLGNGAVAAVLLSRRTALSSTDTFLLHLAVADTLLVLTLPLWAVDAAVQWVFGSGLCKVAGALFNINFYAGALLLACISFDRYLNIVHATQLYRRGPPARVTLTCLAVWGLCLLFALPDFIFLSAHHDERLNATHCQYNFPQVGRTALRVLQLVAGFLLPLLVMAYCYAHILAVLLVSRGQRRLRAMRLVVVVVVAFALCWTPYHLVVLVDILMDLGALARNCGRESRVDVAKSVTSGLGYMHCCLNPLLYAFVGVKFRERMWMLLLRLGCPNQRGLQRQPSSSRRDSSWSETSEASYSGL


What was measured:
[1] = molecular target: T3, human CXCR4 (human, UniProt P61073 1-352); test: FACS, hybridoma supernatant pre-incubated with human CXCR4 transfected HEK293T cells, competitor Alexa-647 SDF-1
T3 construct: also called CXCR4 receptor; C-X-C chemokine receptor type 4

[2] = molecular target: T3, human CXCR4; test: FMAT, hybridoma supernatant on HEK293T cells transiently overexpressing full-length human CXCR4
Protocol: (§1) Supernatants collected from harvested cells were tested to assess the ability of the secreted antibodies to bind to HEK293T cells transiently overexpressing either full-length human, murine or cynomolgus monkey CXCR4. […] Cells diluted in PBS containing 2% FBS were seeded at a density of 3000 expressing and 15000 mock transfected cells per well in 384 well plates (Corning Costar, catalog #3712). Immediately after plating, 15 or 20 μl/well of hybridoma supernatants and 10 μl/well of secondary antibody (Goat anti-human IgG Fc Cy5, final concentration 750 ng/ml) were added and plates incubated for 3 hours at room temperature prior to reading the fluorescence on the FMAT 8200 instrument (Applied Biosystems). The product of number of positive events and fluorescence intensity was used as a measure of binding strength.

[3] = molecular target: T3, human CXCR4; test: cell-based or functional assay
[4] = molecular target: T4, cynomolgus monkey CXCR4 (cynomolgus monkey, UniProt Q28474 1-352); test: FMAT, hybridoma supernatant on HEK293T cells transiently overexpressing full-length cynomolgus CXCR4
T4 construct: whole, on cells; On transiently transfected HEK293T cells or endogenous on the cynomolgus T-cell line HSC-F; also called Cynomolgus CXCR4
Protocol: as §1

[5] = molecular target: T3, human CXCR4; test: cell-based or functional assay; remark: listed apart in the source
[6] = molecular target: T3, human CXCR4; test: FACS binding under antigen limiting conditions on Jurkat cells, Kinexa software fit
Protocol: (§2) FACS binding under antigen limiting conditions was utilized to estimate the affinities of antibodies to the CXCR4 receptor. Jurkat cells were washed in RPMI1640 medium and plated at 50,000 cells per well in duplicate for incubation with 4-fold dilution series of antibody in duplicate, ranging between 150,000 and 0.143 pM. Incubation was carried out at 4° C. overnight, followed by wash step (3 times in PBS) and staining with Goat anti-human Fc−Cy5 secondary antibody+5 μg/mL 7-Amino-Actinomycin (7AAD) for 40 minutes at 4° C. Samples were analyzed on a FACSCaliber following another round of 3 washes in PBS. […] The negative geo mean was entered into Kinexa analysis software as an estimate of antibody “depletion” under limited antigen conditions, and the equilibrium dissociation constant (KD) was estimated from the curve fit.

[7] = molecular target: T3, human CXCR4; test: cell-based or functional assay; remark: listed apart in the source
[8] = molecular target: T4, cynomolgus monkey CXCR4; test: FACS binding titration on HSC-F cells (cyno CXCR4), Kinexa model fit
[9] = molecular target: T3, human CXCR4; test: FACS binding titration on Namalwa cells (human CXCR4), Kinexa model fit
[10] = molecular target: T3, human CXCR4; test: cell-based or functional assay; remark: listed apart in the source
[11] = molecular target: T5, mouse CXCR4 (mouse, UniProt P70658 1-359); test: FMAT, hybridoma supernatant on HEK293T cells transiently overexpressing full-length mouse CXCR4
T5 construct: Full-length murine CXCR4 on transiently transfected HEK293T cells; also native on mouse lymphocytes and the EL4 line; also called murine CXCR4
Protocol: as §1

[12] = molecular target: T1, CCR4; test: FACS on CCR4 transfected CHO cells, parental cells as control
Protocol: (§3) CXCR4 is a GPCR, with few close homologues in the family of human GPCRs. Among these are CXCR3 and CCR4. […] The samples were analyzed on a FACS Caliber cytometer.

[13] = molecular target: T2, human CXCR3; test: FACS on human CXCR3 transfected HEK293 cells, parental cells as control
Protocol: as §3

[14] = molecular target: T4, cynomolgus monkey CXCR4; test: Kinexa-based on-cell affinity (FACS) on cynomolgus T-cell line HSC-F
[15] = molecular target: T3, human CXCR4; test: FACS binding under antigen limiting conditions on Jurkat cells, Kinexa software fit; experiment 1
Protocol: as §2

[16] = molecular target: T3, human CXCR4; test: FACS competition on formalin-fixed Namalwa cells: 10 nM biotinylated SDF-1 bound first, then displaced by 6C7; streptavidin-PE readout
[17] = molecular target: T3, human CXCR4; test: FACS binding under antigen limiting conditions on Jurkat cells, Kinexa software fit; experiment 2
Protocol: as §2

T4 sequence (Q28474 whole entry): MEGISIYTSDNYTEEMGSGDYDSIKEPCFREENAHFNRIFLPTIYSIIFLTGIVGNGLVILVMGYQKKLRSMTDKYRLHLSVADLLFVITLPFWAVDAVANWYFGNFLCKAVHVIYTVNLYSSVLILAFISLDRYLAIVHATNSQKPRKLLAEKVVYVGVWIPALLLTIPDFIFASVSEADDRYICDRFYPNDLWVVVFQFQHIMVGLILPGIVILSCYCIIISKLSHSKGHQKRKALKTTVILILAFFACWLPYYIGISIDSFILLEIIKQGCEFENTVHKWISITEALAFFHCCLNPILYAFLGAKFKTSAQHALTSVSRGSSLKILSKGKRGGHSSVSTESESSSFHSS
T5 sequence (P70658 whole entry): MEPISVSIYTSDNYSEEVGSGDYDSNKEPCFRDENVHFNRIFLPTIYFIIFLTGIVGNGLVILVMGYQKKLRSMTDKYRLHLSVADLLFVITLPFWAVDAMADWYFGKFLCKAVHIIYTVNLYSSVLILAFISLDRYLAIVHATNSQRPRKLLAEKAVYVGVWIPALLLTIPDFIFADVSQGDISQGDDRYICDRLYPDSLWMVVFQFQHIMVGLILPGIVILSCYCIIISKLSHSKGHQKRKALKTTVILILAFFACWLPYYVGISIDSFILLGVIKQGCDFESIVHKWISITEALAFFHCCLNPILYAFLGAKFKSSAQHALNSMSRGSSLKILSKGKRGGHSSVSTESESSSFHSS
T3 sequence (P61073 whole entry): as the sequence (Q28474 whole entry) above, with I24M, H35N, R38K, K146R, S176N counted along it

| Binder | % Inhibition of SDF-1 binding [1] | Count [2] | FL1 [2] | FL1 x count [2] | Jurkat chemotaxis inhibition IC50 pM [3] | Jurkat chemotaxis inhibition IC50 [3] | Count [4] | FL1 [4] | FL1 x count [4] | % Inhibition 1 hr (Jurkat chemotaxis) [5] | % Inhibition 24 hr (Jurkat chemotaxis) [5] | Kd [6] | Jurkat chemotaxis inhibition IC50 [10] | Count [11] | FL1 [11] | FL1 x count [11] | binding result [12] | binding result [13] | further results |
| --- | --- | --- | --- | --- | --- | --- | --- | --- | --- | --- | --- | --- | --- | --- | --- | --- | --- | --- | --- |
| 5E1 (antibody, V domains shown, Fully human monoclonal antibody from XenoMouse hybridoma) VH: EVQLLESGGGLVQPGGSLRLSCAASGFTFSSFAMNWVRQAPGKGLEWVSAISGSGGNIYYADSVRGRFTISRDNSKNTLYLQMNSLRAEDTAVYYCAKVDRNLGYYHGMDVWGQGTTVTVSS VL: not shown | 1% | 213 | 7750 | 1.65e+06 | 14200 pM | 2.12 µg/mL | 130 | 12900 | 1.68e+06 | 70% | -20% | 0.045 nM | – | – | – | – | – | – | – |
| 4C1 (antibody, V domains shown, Fully human monoclonal antibody from XenoMouse hybridoma (strains XMG2 IgG2 or XMG4 IgG4, kappa/lambda); Tested as hybridoma supernatant or purified antibody; also called mAb 4C1; Mab4C1) VH: QVQLVESGGGVVQPGRSLRLSCAASGFTFSSYGMHWVRQAPGKGLEWVAVISYDGSNKYYADSVKGRFTISRDNSKNTLYLQMNSLRAEDTAVYYCTRGGLAARRNYYYSYGMDVWGQGTTVTVSS VL: DIQMTQSPSSLSASVGDRVTITCRASQDIRNDLGWYQQKPGKAPKRLIYAASSLQSGVPSRFSGSGSGTQFTLTISSLQPEDFATYYCLQHNSYPLTFGGGTKVQIK | 35% | 183 | 8330 | 1.52e+06 | 1220 pM | 0.182 µg/mL | 46 | 6360 | 293000 | 81.3% | -27% | 2.2 nM | – | 5 | 1490 | 7440 | no binding (tested: 10 and 100 ug/ml) | no binding (tested: 10 and 100 ug/ml) | – |
| 2A4 (antibody, V domains shown, Fully human monoclonal antibody from XenoMouse hybridoma; also called mAb 2A4; Mab2A4) VH: QVQLVESGGGVVQPGRSLRLSCAASGFTFSSYGMHWVRQAPGKGLEWVAVISYDGSNKYYADSVKGRFTISRDNSKNTLYLQMNSLRAEDTAVYYCTRGGLAARRNYYYSYGTDVWGQGTTVTVSS VL: DIQMTQSPSSLSASVGDRVTITCRASQDIRNDLGWYQQKPGKAPTRLIYAASSLQSGVPSRFSGSGSGTQFTLTISSLQPEDFATYYCLQHNSYPLTFGGGTKVQIK | 42% | 89 | 8370 | 745000 | 383 pM | 0.0574 µg/mL | 89 | 6740 | 600000 | 98% | 76% | 0.82 nM | – | 3 | 954 | 2860 | no binding (tested: 10 and 100 ug/ml) | no binding (tested: 10 and 100 ug/ml) | – |

The next lines start with results.

| % Inhibition of SDF-1 binding [1] | Count [2] | FL1 [2] | FL1 x count [2] | Jurkat chemotaxis inhibition IC50 pM [3] | Jurkat chemotaxis inhibition IC50 [3] | Count [4] | FL1 [4] | FL1 x count [4] | % Inhibition 1 hr (Jurkat chemotaxis) [5] | % Inhibition 24 hr (Jurkat chemotaxis) [5] | Kd [6] | Jurkat chemotaxis inhibition IC50 [10] | Count [11] | FL1 [11] | FL1 x count [11] | binding result [12] | binding result [13] | Binder | further results |
| --- | --- | --- | --- | --- | --- | --- | --- | --- | --- | --- | --- | --- | --- | --- | --- | --- | --- | --- | --- |
| – | – | – | – | – | – | – | – | – | – | – | – | 0.193 nM | – | – | – | – | – | 6C7 IgG1TM (antibody, V domains shown, 6C7 variable domains on a variant IgG1 Fc (IgG1 TM); also called 6C7-TM; Anti-CXCR4 IgG1 TM) VH: QVQLVESGGGVVQPGRSLRLSCAASGFTFSNYVMHWVRQAPGKGLEWVAVIWYDGSNKYYADSVKGRFTISRDNSKNTLSLQMNSLRAEDTAVYYCERGEGYYGSGSRYRGYYYGMDVWGQGTTVTVSS VL: DIQMTQSPSSLSASVGDRVTITCRASQGIRTDLGWYQQKPGKAPKRLIYAASSLQSGVPSRFSGSGSGTEFTLTISSLQPEDFATYYCLQHNSYPRTFGQGTKVEIKR | Inhibition of pMAPK Signaling IC50 (nM), Jurkat, ELISA [7]: 3.1 nM; Kd [8]: 0.221 nM; Kd [9]: 0.768 nM |
| 75% | 184 | 7940 | 1.46e+06 | 1570 pM | 0.236 µg/mL | 137 | 4680 | 642000 | 48.3% | -34% | 0.363 nM | – | 9 | 2400 | 21600 | no binding (tested: 10 and 100 ug/ml) | no binding (tested: 10 and 100 ug/ml) | 7C8 (antibody, V domains shown, Fully human monoclonal antibody from XenoMouse hybridoma) VH: QVQLVESGGGVVQPGRSLRLSCAASGFTFSSYGMHWVRQAPGKGLEWVAVIWYDGTYKYYADSVRGRFTISRDNSKNTLYLQMNSLRAEDTAVYYCARGPLLRYFDWLSDYWGQGTLVTVSS VL: DIQMTQSPSSLSASVGDRVTITCRASQGIRNDLGWYQQKPGKAPKRLIYAATSLQSGVPSRFSGSGSGTEFTLTISSLQPEDFATYYCLQHNNYPRTFGGGTKVEIK | – |
| 88% | 199 | 7990 | 1.59e+06 | 74.7 pM | 0.0112 µg/mL | 125 | 3470 | 434000 | 99.6% | 95% | – | 0.068 nM | – | – | – | no binding (tested: 10 and 100 ug/ml) | no binding (tested: 10 and 100 ug/ml) | 6C7 (antibody, V domains shown, Fully human monoclonal antibody from XenoMouse hybridoma; also called antibody 6C7; mAb 6C7) VH: QVQLVESGGGVVQPGRSLRLSCAASGFTFSNYVMHWVRQAPGKGLEWVAVIWYDGSNKYYADSVKGRFTISRDNSKNTLSLQMNSLRAEDTAVYYCERGEGYYGSGSRYRGYYYGMDVWGQGTTVTVSS VL: DIQMTQSPSSLSASVGDRVTITCRASQGIRTDLGWYQQKPGKAPKRLIYAASSLQSGVPSRFSGSGSGTEFTLTISSLQPEDFATYYCLQHNSYPRTFGQGTKVEIK | Kd [14]: 0.221 nM; Kd [15]: 0.242 nM; IC50 [16]: 0.123 nM; IC50 (read off the curve) [16]: ~0.1 nM; Kd [17]: 0.768 nM |

— patent US20140314784A1 (MEDLMMUNE, published 2014)
